This note sets out measurements from patent publication US20230242646A1 (JJP BIOLOGICS SP Z O O, published 2023).

Assay [1] addresses T1, membrane-bound full-length human CD89 on HEK293F cells (human, UniProt P24071 22-287).
T1 construct: 2 or transient transfectants; also called membrane human CD89; human FcaRI
The experiment in a line: FACS HEK293F-huCD89.
Procedure: After extensive washing in PBS/BSA/NaN₃, cells were subsequently incubated with 1:200 diluted PE-conjugated goat anti-human IgG Fcy-specific antibodies (Jackson ImmunoResearch) for 30 minutes at 4° C. After extensive washing in PBS/BSA/NaN₃, cells were fixed in 2% formaldehyde in PBS/BSA/NaN₃ for 30 minutes at 4° C.

The target of assay [2] is T2, recombinant C-terminal polyhistidine-tagged human (extracellular) CD89 (Sino Biological) (human, UniProt P24071 22-227).
T2 construct: extracellular domain; bought protein; also called rhuCD89; soluble monomeric rhuCD89
The experiment in a line: ELISA, coated rhuCD89. For orientation: In an ELISA, binding on a coated surface is turned into a signal by an enzyme label.
Procedure: (§1) After extensive washing with PBS/0.05% Tween 20, plates were blocked with PBS/0.05% Tween 20/1% BSA (Roche) for 1 hour at RT. Subsequently, plates were incubated with 50 µL titrated (in block buffer) purified mouse anti-human CD89 antibody/well for 1 hour at RT. […] After extensive washing in PBS/0.05% Tween 20, binding of antibodies on rhuCD89 was determined with 1:5,000 diluted horseradish peroxidase (HRP)-conjugated goat anti-mouse IgG Fcy-specific antibodies (Jackson ImmunoResearch) for 1 hour at RT, followed by a ready-to-use solution of TMB substrate (Invitrogen) for colorimetric detection.
After extensive washing with PBS/0.05% Tween 20, plates were blocked with PBS/0.05% Tween 20/1% BSA (Roche) for 1 hour at RT. […] After extensive washing in PBS/0.05% Tween 20, binding of antibodies on rhuCD89 was determined with 1:5,000 diluted horseradish peroxidase (HRP)-conjugated goat anti-human IgG Fcy-specific antibodies (Jackson ImmunoResearch) for 1 hour at RT, followed by a ready-to-use solution of TMB substrate (Invitrogen) for colorimetric detection.

Assay [3] has as its target T1, membrane-bound full-length human CD89 …. Nature of the assay: FACS on HEK293F-huCD89.
Procedure: Then, 10 µL/tube (i.e., 0.1 x 10⁶ cells) of these cells were incubated with 100 µL titrated (in PBS/BSA/NaN₃) purified mouse anti-human CD89 antibody/tube for 30 minutes at 4° C. […] After extensive washing in PBS/BSA/NaN₃, cells were subsequently incubated with 1:200 diluted PE-conjugated goat anti-mouse IgG Fcy-specific antibodies (Jackson ImmunoResearch) for 30 minutes at 4° C. After extensive washing in PBS/BSA/NaN₃, cells were fixed in 2% formaldehyde in PBS/BSA/NaN₃ for 30 minutes at 4° C.
Assay [4] concerns the target T2, recombinant C-terminal …. The experiment in a line: ELISA on coated rhuCD89.
Procedure: as §1
For assay [5], the target named is T1, membrane-bound full-length human CD89 …. The experiment in a line: FACS HEK293F-huCD89, 10 ug/mL; competitor PE-A3.
Procedure: (§2) Then, 10 µL/tube (i.e., 0.1 × 10⁶ cells) of these cells were incubated with or without 100 µL purified mouse anti-human CD89 antibody at 10 µg/mL (in PBS/BSA/NaN₃) for 30 minutes at 4° C. […] After extensive washing in PBS/BSA/NaN₃, cells were fixed in 2% formaldehyde in PBS/BSA/NaN₃ for 30 minutes at 4° C.
The target is the same in assay [6]. The experiment in a line: FACS HEK293F-huCD89, 10 ug/mL; competitor PE-A59.
Procedure: as §2
For assay [7] the target is unchanged. The experiment in a line: FACS HEK293F-huCD89, 10 ug/mL; competitor PE-MIP8a.
Procedure: as §2
Assay [8] has as its target T3, chimeric bovine EC1-Fcgamma2R/human EC2-CD89 on HEK293F cells (bovine/human chimera).
T3 chain: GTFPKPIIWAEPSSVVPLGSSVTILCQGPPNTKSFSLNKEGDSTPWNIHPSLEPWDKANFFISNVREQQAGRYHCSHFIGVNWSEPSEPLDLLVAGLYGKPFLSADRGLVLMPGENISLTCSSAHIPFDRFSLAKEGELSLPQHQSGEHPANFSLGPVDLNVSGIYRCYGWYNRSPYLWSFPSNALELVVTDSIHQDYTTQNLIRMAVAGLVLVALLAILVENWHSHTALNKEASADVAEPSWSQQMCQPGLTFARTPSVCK
Nature of the assay: FACS, transiently transfected HEK293F. A general note: A flow cytometer gives signals particle by particle.
Procedure: To this end, transient transfected HEK293F cells were put at 10 × 10⁶ cells/mL in ice-chilled phosphate-buffered saline containing 0.1% BSA (Sigma)/0.05% NaN₃ (PBS/BSA/NaN₃) supplemented with 50 µg/mL human IgGs (blocking Fcy receptors; Sigma) for 10 minutes at 4° C. Then, 10 µL/tube (i.e., 0.1 × 10⁶ cells) of these cells were incubated with or without 100 µL purified mouse anti-human CD89 antibody at 10 µg/mL (in PBS/BSA/NaN₃) for 30 minutes at 4° C. […] After extensive washing in PBS/BSA/NaN₃, cells were subsequently incubated with 1:200 diluted PE-conjugated goat anti-mouse IgG Fcy-specific antibodies (Jackson ImmunoResearch) for 30 minutes at 4° C. After extensive washing in PBS/BSA/NaN₃, cells were fixed in 2% formaldehyde in PBS/BSA/NaN₃ for 30 minutes at 4° C.

The target in assay [9] is T4, membrane full-length cynomolgus monkey CD89 on HEK293F cells (cynomolgus monkey).
T4 construct: also called cynoCD89; cynomolgus EC1-CD89
T4 chain: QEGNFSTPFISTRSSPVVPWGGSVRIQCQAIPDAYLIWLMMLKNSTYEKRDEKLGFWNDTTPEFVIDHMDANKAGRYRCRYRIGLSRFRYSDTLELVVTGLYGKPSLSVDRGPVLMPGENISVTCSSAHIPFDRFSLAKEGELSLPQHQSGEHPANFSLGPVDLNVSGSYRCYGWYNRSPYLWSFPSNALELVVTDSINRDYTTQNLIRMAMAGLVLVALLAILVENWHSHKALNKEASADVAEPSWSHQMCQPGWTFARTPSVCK
Nature of the assay: FACS, transiently transfected HEK293F.
Procedure: To this end, transient transfected HEK293F cells were put at 10 x 10⁶ cells/mL in ice-chilled phosphate-buffered saline containing 0.1% BSA (Sigma)/0.05% NaN₃ (PBS/BSA/NaN₃) supplemented with 50 µg/mL human IgGs (blocking FcY receptors; Sigma) for 10 minutes at 4° C. Then, 10 µL/tube (i.e., 0.1 × 10⁶ cells) of these cells were incubated with or without 100 µL purified mouse anti-human CD89 antibody at 10 µg/mL (in PBS/BSA/NaN₃) for 30 minutes at 4° C. […] After extensive washing in PBS/BSA/NaN₃, cells were subsequently incubated with 1:200 diluted PE-conjugated goat anti-mouse IgG Fcy-specific antibodies (Jackson ImmunoResearch) for 30 minutes at 4° C. After extensive washing in PBS/BSA/NaN₃, cells were fixed in 2% formaldehyde in PBS/BSA/NaN₃ for 30 minutes at 4° C.

In assay [10] the target is T5, chimeric human/cynomolgus monkey CD89-III on HEK293F cells (human/cynomolgus chimera, UniProt P24071 22-287).
T5 construct: also called dGly72 - Gly96 human EC1-CD89; III (72-96)
T5 chain: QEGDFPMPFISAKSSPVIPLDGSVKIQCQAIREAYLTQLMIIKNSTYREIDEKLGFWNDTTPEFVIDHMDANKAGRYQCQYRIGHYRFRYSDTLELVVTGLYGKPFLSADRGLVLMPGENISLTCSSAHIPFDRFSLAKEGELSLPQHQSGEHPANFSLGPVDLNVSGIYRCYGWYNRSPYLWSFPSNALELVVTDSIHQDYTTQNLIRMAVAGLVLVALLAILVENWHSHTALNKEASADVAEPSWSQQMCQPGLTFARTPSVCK
The experiment in a line: FACS, transiently transfected HEK293F.
Procedure: (§3) To this end, transient transfected HEK293F cells were put at 10 × 10⁶ cells/mL in ice-chilled phosphate-buffered saline containing 0.1% BSA (Sigma)/0.05% NaN₃ (PBS/BSA/NaN₃) supplemented with 50 µg/mL human IgGs (blocking FcY receptors; Sigma) for 10 minutes at 4° C. Then, 10 µL/tube (i.e., 0.1 × 10⁶ cells) of these cells were incubated with or without 100 µL purified mouse anti-human CD89 antibody at 10 µg/mL (in PBS/BSA/NaN₃) for 30 minutes at 4° C. […] After extensive washing in PBS/BSA/NaN₃, cells were subsequently incubated with 1:200 diluted PE-conjugated goat anti-mouse IgG Fcy-specific antibodies (Jackson ImmunoResearch) for 30 minutes at 4° C. After extensive washing in PBS/BSA/NaN₃, cells were fixed in 2% formaldehyde in PBS/BSA/NaN₃ for 30 minutes at 4° C.

The target of assay [11] is T6, chimeric human/cynomolgus monkey CD89-hotspots on HEK293F cells (human/cynomolgus chimera, UniProt P24071 22-287).
T6 construct: also called dThr58, Gln59; dArg73, Arg74, Lys76
T6 chain: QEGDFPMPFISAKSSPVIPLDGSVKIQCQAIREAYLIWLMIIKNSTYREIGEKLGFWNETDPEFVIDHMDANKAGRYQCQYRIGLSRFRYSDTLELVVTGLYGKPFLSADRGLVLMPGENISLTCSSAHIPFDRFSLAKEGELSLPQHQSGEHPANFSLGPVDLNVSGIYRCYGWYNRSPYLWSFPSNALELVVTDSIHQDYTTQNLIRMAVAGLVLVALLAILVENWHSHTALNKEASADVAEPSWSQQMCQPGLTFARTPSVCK
Nature of the assay: FACS, transiently transfected HEK293F.
Procedure: as §3

For assay [12], the target named is T7, chimeric human/cynomolgus monkey CD89-I on HEK293F cells (human/cynomolgus chimera, UniProt P24071 22-287).
T7 construct: also called dGln22 - Lys46 human EC1-CD89; I (22-46)
T7 chain: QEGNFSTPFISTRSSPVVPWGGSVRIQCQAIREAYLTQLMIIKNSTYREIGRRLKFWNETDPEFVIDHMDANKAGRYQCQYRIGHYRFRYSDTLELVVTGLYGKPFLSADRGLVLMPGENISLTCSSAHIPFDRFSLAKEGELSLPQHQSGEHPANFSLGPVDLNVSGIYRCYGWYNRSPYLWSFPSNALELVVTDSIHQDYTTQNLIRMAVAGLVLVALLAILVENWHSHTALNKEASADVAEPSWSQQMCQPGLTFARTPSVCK
The experiment in a line: FACS, 10 µg/mL, transiently transfected HEK293F.

Assay [13] addresses T8, chimeric human/cynomolgus monkey CD89-II on HEK293F cells (human/cynomolgus chimera, UniProt P24071 22-287).
T8 construct: also called dIle47 - Ile71 human EC1-CD89; II (47-71)
T8 chain: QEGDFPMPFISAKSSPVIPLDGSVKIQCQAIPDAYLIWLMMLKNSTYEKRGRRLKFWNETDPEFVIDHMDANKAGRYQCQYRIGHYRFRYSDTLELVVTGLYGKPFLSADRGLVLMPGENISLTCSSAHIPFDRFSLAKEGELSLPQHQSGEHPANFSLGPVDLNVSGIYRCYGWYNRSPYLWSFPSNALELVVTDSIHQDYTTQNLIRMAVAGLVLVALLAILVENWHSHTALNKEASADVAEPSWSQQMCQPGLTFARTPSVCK
Nature of the assay: FACS, 10 µg/mL, transiently transfected HEK293F.

In assay [14] the target is T9, chimeric human/cynomolgus monkey CD89-IV on HEK293F cells (human/cynomolgus chimera, UniProt P24071 22-287).
T9 construct: also called dArg97 - Gly121 human EC1-CD89
T9 chain: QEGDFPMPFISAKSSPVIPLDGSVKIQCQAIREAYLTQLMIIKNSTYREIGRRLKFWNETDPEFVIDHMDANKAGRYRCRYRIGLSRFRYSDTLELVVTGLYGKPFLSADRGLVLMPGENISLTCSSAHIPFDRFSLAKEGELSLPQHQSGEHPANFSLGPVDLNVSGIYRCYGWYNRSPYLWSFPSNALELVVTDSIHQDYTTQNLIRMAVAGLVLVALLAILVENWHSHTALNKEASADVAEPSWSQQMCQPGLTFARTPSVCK
Nature of the assay: FACS, 10 µg/mL, transiently transfected HEK293F.

For assay [15], the target named is T1, membrane-bound full-length human CD89 …. Nature of the assay: FACS, antibody before serum IgA on HEK293F-huCD89; IgA detected.
The target in assay [16] is T2, recombinant C-terminal …. Nature of the assay: ELISA, antibody before serum IgA on coated rhuCD89; IgA detected.
Procedure: After extensive washing with PBS/0.05% Tween 20, plates were blocked with PBS/0.05% Tween 20/1% BSA (Roche) for 1 hour at RT. Subsequently, plates were incubated with 25 µL titrated (in block buffer) purified mouse anti-human CD89 antibody/well for 30 minutes at RT. […] After extensive washing in PBS/0.05% Tween 20, 1:10,000 diluted HRP-conjugated streptavidin (Jackson ImmunoResearch) was added, and incubated for 1 hour at RT, followed by a ready-to-use solution of TMB substrate (Invitrogen) for colorimetric detection.
The target in assay [17] is T1, membrane-bound full-length human CD89 …. The experiment in a line: FACS, antibody before secretory IgA on HEK293F-huCD89; IgA detected.
Procedure: Then, 10 µL/tube (i.e., 0.1 x 10⁶ cells) of these cells were incubated with or without 50 µL titrated (in PBS/BSA/NaN₃) purified mouse anti-human CD89 antibody/tube for 30 minutes at 4° C. […] After extensive washing in PBS/BSA/NaN₃, 1:200 diluted PE-conjugated streptavidin (Jackson ImmunoResearch) was added, and incubated for 30 minutes at 4° C. After extensive washing in PBS/BSA/NaN₃, cells were fixed in 4% formaldehyde in PBS/BSA/NaN₃ for 30 minutes at 4° C.

B1: CD89/IgA blocking mouse anti-human CD89-specific antibody 8F3 (antibody, V domains shown)
VH: EVQLVESGGGLVKPGGSLKLSCAASGFTFSNYGMSWVRQTPDKRLEWVATMHSGGTYTYYPDNVKGRFTISRDNAKNNLYLQMSSLRSEDTAMYYCARETGLYDGLFDFWGQGTTLTVSS
VL: DVQITQSPSYLAASPGETITINCRASKTISKYLAWYQEKPGKTNMLLIYSGSTLQSGVPSRFSGSGSGTDFTLTISSLEPEDLAMYYCQQHDEYPWTFGGGTKLEIK
notes: also called mouse 8F3
B1: the results for the EC50 in assay [1] and in [2] were 0.714 µg/mL and 0.052 µg/mL, respectively. Further, the 50% effective concentration (EC50 (read off the curve)) in [3] was around 0.4 µg/mL; in assay [4], around 0.03 µg/mL. Besides, the “% blocking of PE-A3 binding” value in assay [5] is below 25%. In addition, in assay [6], the “% blocking of PE-A59 binding” value was below 25%. In assay [7], the “% blocking of PE-MIP8a binding” value was below 25%. Besides, the binding result in assay [8] is “no binding (tested: 10 µg/mL)”; in assay [9], “no binding (tested: 10 µg/mL)”; in assay [10], “no binding (tested: 10 µg/mL)”; in [11], “no binding (tested: 10 µg/mL)”; in assay [12], “binds”; in assay [13] it was “binds”. Moreover, the binding result in assay [14] is “binds”. In addition, the “IC50 (read off the curve)” value in [15] was around 0.8 µg/mL; in [16], around 0.09 µg/mL; in assay [17], around 0.8 µg/mL.

As usually defined, the EC50 is the concentration that produces a half-maximal response. The term EC50 (read off the curve) denotes the concentration at which the effect is half-maximal.
